Assays:
[1] = biological target: T1, purified recombinant HERV-K Env protein (human endogenous retrovirus-K (HERV-K)); assay: protein thermal shift assay (DSF); HERV-K Env with 1-3 nM G10
T1 chain: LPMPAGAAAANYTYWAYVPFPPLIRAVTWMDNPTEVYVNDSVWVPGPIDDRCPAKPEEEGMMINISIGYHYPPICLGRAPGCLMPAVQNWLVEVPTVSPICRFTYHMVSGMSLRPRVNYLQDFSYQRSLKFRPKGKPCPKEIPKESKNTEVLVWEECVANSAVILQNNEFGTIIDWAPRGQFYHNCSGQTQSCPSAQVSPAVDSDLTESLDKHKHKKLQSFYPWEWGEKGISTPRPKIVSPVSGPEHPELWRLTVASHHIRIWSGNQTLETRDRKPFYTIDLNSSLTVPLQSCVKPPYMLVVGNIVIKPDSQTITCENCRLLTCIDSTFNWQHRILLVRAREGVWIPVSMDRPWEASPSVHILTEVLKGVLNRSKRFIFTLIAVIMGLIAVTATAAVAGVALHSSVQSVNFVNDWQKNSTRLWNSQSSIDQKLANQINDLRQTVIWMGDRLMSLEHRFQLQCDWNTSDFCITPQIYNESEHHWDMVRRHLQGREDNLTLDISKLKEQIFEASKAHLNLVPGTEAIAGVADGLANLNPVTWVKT

[2] = biological target: HERV-K Env-green fluorescent protein (GFP) fusion protein in transfected HEK293T cells (human endogenous retrovirus-K (HERV-K)); assay: flow cytometry on fixed HEK293T cells transfected with Env-GFP; G10, anti-Myc antibody, Alexa Fluor 647 secondary antibody

B1: HERV-K Env nanobody G10 (VHH)
VHH: EVQLQASGGGFVQPGGSLRLSCAASGSTWYLDAMGWFRQAPGKEREFVSAISDLDDTARYYADSVKGRFTISRDNSKNTVYLQMNSLRAEDTATYYCAYLGATMAETYWGQGTQVTVSS
notes: Recombinant protein made in E. coli; From Hybrigenics antibody phage display; also called nanobody clone G10; G10 nanobody
B1 was tested, and the “shift in Tm” value [1] was roughly 2.5 ° C and the % of cells in the DP quadrant (GFP and Alexa Fluor 647) [2] was 39.4%.
